Several values for one entry are separate records, joined by “and”; a condition that tells them apart may be missing. Equal entries are not always repeated.
Experiments:
[1] = biological target: Endothelial protein C receptor (human) (UniProt Q9UNN8); experiment: cell-based or functional assay
[2] = biological target: Protease-activated receptor 1 (human) (UniProt P25116); experiment: cell-based or functional assay
Protease-activated receptor 1 (human), sequence (P25116 42-425): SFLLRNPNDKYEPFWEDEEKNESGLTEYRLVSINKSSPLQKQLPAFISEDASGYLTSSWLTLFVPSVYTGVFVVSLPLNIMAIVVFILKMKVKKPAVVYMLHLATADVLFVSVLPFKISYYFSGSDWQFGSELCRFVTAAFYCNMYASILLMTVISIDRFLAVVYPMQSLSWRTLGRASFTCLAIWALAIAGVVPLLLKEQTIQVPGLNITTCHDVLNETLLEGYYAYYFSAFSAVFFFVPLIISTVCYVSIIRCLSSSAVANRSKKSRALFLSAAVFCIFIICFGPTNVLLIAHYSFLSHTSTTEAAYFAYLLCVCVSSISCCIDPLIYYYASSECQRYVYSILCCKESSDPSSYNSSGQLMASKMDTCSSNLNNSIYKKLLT

Endothelial protein C receptor (human), sequence (Q9UNN8 18-238): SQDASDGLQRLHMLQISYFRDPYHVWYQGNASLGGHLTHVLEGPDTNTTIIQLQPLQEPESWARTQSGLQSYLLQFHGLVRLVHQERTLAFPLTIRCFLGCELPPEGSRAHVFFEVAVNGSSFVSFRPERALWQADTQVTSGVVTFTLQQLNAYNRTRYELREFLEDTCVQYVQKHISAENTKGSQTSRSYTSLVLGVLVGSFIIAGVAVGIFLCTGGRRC

| inhibition of LPS (100 ng/mL)-mediated HMGB1 release by HUVECs (ELISA) [1] | efficacy relative to APC in inhibiting adherence and migration of THP-1 cells across HMGB1-activated HUVEC monolayer [2] | Substance |
| --- | --- | --- |
| > 10 nM and 100 nM | – | Activated protein C (from UniProt P04070 43-461) |
| < 1 nM | 20 to 50 fold | PCgla/meizothrombin (meizothrombin with its Gla-domain replaced by that of protein C; Factor Xa-activated PCgla/prothrombin-3A) |

— patent publication US20130071375A1
